Laboratory results from PMC12047440, “LINE-1 ribonucleoprotein condensates bind DNA to enable nuclear entry during mitosis” (Science Advances, 2024).
Substitutions are numbered along the chain they refer to. In names and notes the source's numbering stands. Several values for one entry are separate records, joined by “and”; a condition that tells them apart may be missing. Identical values can stand only once.

Legend:
ΔStammer-ORF1p (human) = experiment: mass photometry; purified ORF1p alone, landing on a glass coverslip; 300 nM ORF1p in 20 mM Hepes pH 7.5, 50 mM KCl, 1 mM MgCl2, 1 mM DTT; also a protein concentration series, a KCl series and 150 mM KCl; monomers to trimers, trimers to hexamers and higher-order oligomers
ORF1p WT [1] = molecular target: T1, ORF1p WT (Homo sapiens, UniProt Q9UN81 1-338); experiment: fluorescence anisotropy; 50 mM KCl; 20 mM Hepes pH 7.5, 50 mM KCl (150 or 300 mM in Fig. S1D rows), 1 mM MgCl2, 1 mM DTT; 1 nM 6-FAM oligo; temperature not stated; settings: protein: recombinant, tags: tag removed, N-terminal G left, chain copies: 3
ΔStammer-ORF1p = ΔStammer-ORF1p (Homo sapiens, UniProt Q9UN81 1-338, del91-93); experiment: as above; settings: protein: recombinant, tags: tag removed by TEV, N-terminal G left, chain copies: 3
K3A/K4A-ORF1p = K3A/K4A-ORF1p (Homo sapiens, UniProt Q9UN81 1-338, K3A;K4A); experiment: as above; settings: protein: recombinant, tags: tag removed, N-terminal G left, chain copies: 3
His-TEV-ORF1p = molecular target: T2, His-TEV-ORF1p (Homo sapiens, UniProt Q9UN81 1-338); experiment: as above; settings: protein: recombinant, tags: uncleaved N-terminal His-TEV, C-terminal ybbR, chain copies: 3
T2 chain: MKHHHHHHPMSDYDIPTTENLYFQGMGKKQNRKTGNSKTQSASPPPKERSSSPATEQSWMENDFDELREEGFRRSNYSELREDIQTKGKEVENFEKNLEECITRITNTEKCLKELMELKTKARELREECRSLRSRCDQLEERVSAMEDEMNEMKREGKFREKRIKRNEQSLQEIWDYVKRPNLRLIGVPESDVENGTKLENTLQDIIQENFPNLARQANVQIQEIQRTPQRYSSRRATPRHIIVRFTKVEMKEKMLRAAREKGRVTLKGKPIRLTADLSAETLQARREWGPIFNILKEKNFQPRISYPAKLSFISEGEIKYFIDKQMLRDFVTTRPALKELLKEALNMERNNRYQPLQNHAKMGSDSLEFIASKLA

[2] = molecular target: the molecule itself; experiment: mass photometry; purified ORF1p alone, landing on a glass coverslip; 300 nM ORF1p in 20 mM Hepes pH 7.5, 50 mM KCl, 1 mM MgCl2, 1 mM DTT; also a protein concentration series, a KCl series and 150 mM KCl; monomers to trimers, trimers to hexamers and higher-order oligomers
ORF1p WT [3] = molecular target: T3, ORF1p WT (Homo sapiens, UniProt Q9UN81); experiment: mass photometry; second peak, two trimers per RNA; Anisotropy: 20 mM Hepes pH 7.5, 50 mM KCl, 1 mM MgCl2, 1 mM DTT, 1 nM 6-FAM oligo, temperature not stated; DNA curtains: 50, 150 or 300 mM KCl, RNP premix 1 min at room temperature; settings: protein: recombinant; tags: tag removed, N-terminal G left; chain copies: 3
ORF1p WT [4] = molecular target: T3, ORF1p WT; experiment: mass photometry; one trimer per RNA; Anisotropy: 20 mM Hepes pH 7.5, 50 mM KCl, 1 mM MgCl2, 1 mM DTT, 1 nM 6-FAM oligo, temperature not stated; DNA curtains: 50, 150 or 300 mM KCl, RNP premix 1 min at room temperature; settings: protein: recombinant; tags: tag removed, N-terminal G left; chain copies: 3
ORF1p WT [5] = molecular target: T1, ORF1p WT; experiment: fluorescence anisotropy; 150 mM KCl; 20 mM Hepes pH 7.5, 50 mM KCl (150 or 300 mM in Fig. S1D rows), 1 mM MgCl2, 1 mM DTT; 1 nM 6-FAM oligo; temperature not stated; settings: protein: recombinant; tags: tag removed, N-terminal G left; chain copies: 3; label: 5' 6-FAM (anisotropy); unstructured
ORF1p WT [6] = molecular target: T1, ORF1p WT; experiment: fluorescence anisotropy; 300 mM KCl; 20 mM Hepes pH 7.5, 50 mM KCl (150 or 300 mM in Fig. S1D rows), 1 mM MgCl2, 1 mM DTT; 1 nM 6-FAM oligo; temperature not stated; settings: protein: recombinant; tags: tag removed, N-terminal G left; chain copies: 3; label: 5' 6-FAM (anisotropy); unstructured
ORF1p WT [7] = molecular target: T3, ORF1p WT; experiment: mass photometry; two-trimer peak more prominent; Anisotropy: 20 mM Hepes pH 7.5, 50 mM KCl, 1 mM MgCl2, 1 mM DTT, 1 nM 6-FAM oligo, temperature not stated; DNA curtains: 50, 150 or 300 mM KCl, RNP premix 1 min at room temperature; settings: protein: recombinant; tags: tag removed, N-terminal G left; chain copies: 3
[8] = label: 5' 6-FAM on strand 1 (anisotropy), blunt
[9] = label: 5' 6-FAM (anisotropy), unstructured

K3A/K4A-ORF1p, sequence (Q9UN81 other isoform, or with tags, fused parts or gaps K3A;K4A): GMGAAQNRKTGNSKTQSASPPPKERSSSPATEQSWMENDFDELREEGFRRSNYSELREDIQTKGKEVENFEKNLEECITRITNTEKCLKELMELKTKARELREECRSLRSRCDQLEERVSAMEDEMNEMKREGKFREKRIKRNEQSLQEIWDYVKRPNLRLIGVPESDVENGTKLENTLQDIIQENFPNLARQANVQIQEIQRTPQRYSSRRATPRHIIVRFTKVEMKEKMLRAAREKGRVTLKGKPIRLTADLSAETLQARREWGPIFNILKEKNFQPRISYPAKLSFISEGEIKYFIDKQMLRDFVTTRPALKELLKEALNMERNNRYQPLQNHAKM

ΔStammer-ORF1p (natural protein)
stoichiometry N (ΔStammer-ORF1p (human)): 6

B1: 30 bp RNA/DNA hybrid (DNA:RNA)
RNA: ACCAUCAUCAAAGACCAAAAGUAGAUAAAA
DNA: TTTTATCTACTTTTGGTCTTTGATGATGGT
Kd (ORF1p WT [1]; label: 5' 6-FAM on RNA, blunt): 4.68 nM

AAAAAAAAAAAAAAAAAAAAAAAAAAAAAA (ssRNA) [30 nt poly(A)]
Kd (ORF1p WT [1]; label: 5' 6-FAM): 6.01 nM

B2: 30 bp dsDNA (dsDNA)
DNA 1: ACCATCATCAAAGACCAAAAGTAGATAAAA
DNA 2: B1 DNA
Kd (ORF1p WT [1]; [8]): 18.9 nM
Kd (ΔStammer-ORF1p; [8]): 26.6 nM
Kd (K3A/K4A-ORF1p; [8]): 21.8 nM
Kd (His-TEV-ORF1p; [8]): 28.6 nM

B3: WT-ORF1p (LINE-1 ORF1 protein, Homo sapiens) (natural protein, human)
chain: GMGKKQNRKTGNSKTQSASPPPKERSSSPATEQSWMENDFDELREEGFRRSNYSELREDIQTKGKEVENFEKNLEECITRITNTEKCLKELMELKTKARELREECRSLRSRCDQLEERVSAMEDEMNEMKREGKFREKRIKRNEQSLQEIWDYVKRPNLRLIGVPESDVENGTKLENTLQDIIQENFPNLARQANVQIQEIQRTPQRYSSRRATPRHIIVRFTKVEMKEKMLRAAREKGRVTLKGKPIRLTADLSAETLQARREWGPIFNILKEKNFQPRISYPAKLSFISEGEIKYFIDKQMLRDFVTTRPALKELLKEALNMERNNRYQPLQNHAKM
notes: first printed residue of the construct, before the first methionine of ORF1p; left after TEV protease digestion; LINE-1 ORF1p, human, 338 residues as printed; also called pLH2087; source: E. coli BL21(DE3), purified as described previously (19); not shown: His6, N-terminal, cleaved
stoichiometry N [2]: 6 and 3

B4: K3A/K4A-ORF1p (natural protein, human)
chain: B3 chain with K4A, K5A
notes: first printed residue of the construct, before the first methionine of ORF1p; left after TEV protease digestion; LINE-1 ORF1p, human, with the N-terminal basic patch mutated; also called pLH2075; source: E. coli BL21(DE3), purified as described previously (19); not shown: His6, N-terminal, cleaved
binding result [2]: binds

B5: 90 nt RNA (ssRNA)
RNA: GGGCGAAUUGGGUACCGGGCCCCCCCUCGAGGCCGGUAGAGGUGUGGUCAAUAAGAGCGACCUCAUACUAUACCUGAGAAAGCAACCUGA
binding result (ORF1p WT [3]): binds

B6: 60 nt RNA (ssRNA)
RNA: GGGCGAAUUGGGUACCGGGCCCCCCCUCGAGGCCGGUAGAGGUGUGGUCAAUAAGAGCGA
binding result (ORF1p WT [4]): binds

ACCATCATCAAAGACCAAAAGTAGATAAAA (ssDNA) [30 nt ssDNA]
Kd (ORF1p WT [1]; label: 5' 6-FAM): 8.27 nM

ACCAUCAUCAAAGACCAAAAGUAGAUAAAA (ssRNA) [30 nt RNA]
Kd (ORF1p WT [1]; [9]): 3.89 nM
Kd (ΔStammer-ORF1p; [9]): 8.06 nM
Kd (K3A/K4A-ORF1p; [9]): 11.1 nM
Kd (His-TEV-ORF1p; [9]): 17.7 nM
Kd (ORF1p WT [5]): 11.3 nM
Kd (ORF1p WT [6]): 11.9 nM

B7: 120 nt RNA (ssRNA)
RNA: GGGCGAAUUGGGUACCGGGCCCCCCCUCGAGGCCGGUAGAGGUGUGGUCAAUAAGAGCGACCUCAUACUAUACCUGAGAAAGCAACCUGACCUACAGGAAAGAGUUACUCAAGAAUAAGA
binding result (ORF1p WT [7]): binds
